Patent publication US20240262926A1 (published 2024)

T1: recombinant monkey TfR (r monkey TfR: Sino Biological Inc.) (cynomolgus monkey (Macaca fascicularis), UniProt Q5RDH6 89-760 (Pongo abelii entry))
T1 construct: Bought product; also called r monkey TfR-ECD (Histag); cynomolgus monkey TfR; not shown: histidine tag attached to the N-terminus
T1 chain: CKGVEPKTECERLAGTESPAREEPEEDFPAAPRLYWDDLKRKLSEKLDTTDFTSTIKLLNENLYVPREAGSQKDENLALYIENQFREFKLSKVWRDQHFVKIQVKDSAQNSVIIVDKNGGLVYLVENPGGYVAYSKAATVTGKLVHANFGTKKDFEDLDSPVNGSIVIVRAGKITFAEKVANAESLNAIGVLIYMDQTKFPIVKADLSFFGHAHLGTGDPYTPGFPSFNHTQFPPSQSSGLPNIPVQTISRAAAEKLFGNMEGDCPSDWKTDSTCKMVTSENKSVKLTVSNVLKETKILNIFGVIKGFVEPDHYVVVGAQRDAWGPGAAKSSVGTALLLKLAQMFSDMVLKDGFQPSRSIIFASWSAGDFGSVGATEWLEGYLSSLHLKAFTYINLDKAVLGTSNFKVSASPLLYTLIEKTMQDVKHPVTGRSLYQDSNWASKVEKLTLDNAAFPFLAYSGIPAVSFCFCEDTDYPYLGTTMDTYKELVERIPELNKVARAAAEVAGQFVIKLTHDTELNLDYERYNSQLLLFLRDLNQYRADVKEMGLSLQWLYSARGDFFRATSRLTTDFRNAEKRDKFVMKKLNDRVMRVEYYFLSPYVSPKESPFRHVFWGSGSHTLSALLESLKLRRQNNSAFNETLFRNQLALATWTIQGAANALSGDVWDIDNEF


Key:
[1] = target: human TrkB (GenBank Acc. No. NP_001018074.1) expressed in CHO cells (human, UniProt Q16620 32-822); experiment: cell-based or functional assay
[2] = target: T1, recombinant monkey TfR (r monkey TfR: …); experiment: BLI (Octet RED96), method of Example 7, His-tagged TfR ECD on Ni-NTA sensor
Procedure: (§1) Each of the antibodies (anti-hTfR antibody Nos. 1 to 14) purified above was subjected to 2-fold dilution steps with HBS-P+(10 mM HEPES containing 150 mM NaCl, 50 μM EDTA and 0.05% Surfactant P20) to prepare antibody solutions of 7 different concentrations, 0.78125 to 50 nM (0.117 to 7.5 μg/mL). These antibody solutions were used as the sample solutions. The r human and r monkey TfRs were respectively diluted with HBS-P+ to prepare 25 μg/mL solutions, which were used as r human TfR-ECD (Histag) solution and r monkey TfR-ECD (Histag) solution, respectively.
(§2) Each of the sample solutions prepared above by 2-fold dilution steps was added, 200 μL/well, to a 96-well plate, black (Greiner Bio-One Inc.). Each of the r human TfR-ECD (Histag) solution and the r monkey TfR-ECD (Histag) solutions prepared above was added, 200 μL/well, to predetermined wells. To respective wells for baseline, dissociation and washing were added HBS-P+, 200 μL/well. To wells for regeneration were added 10 mM Glycine-HCl, pH 1.7, 200 μL/well. To wells for activation was added 0.5 mM NiCl₂ solution, 200 μL/well. The plate and biosensor (Biosensor/Ni-NTA: ForteBio Inc., a division of Pall Corporation) were set in the prescribed positions of Octet RED96. […] The measurement was performed at 25 to 30° C.
(§3) The affinity of the humanized anti-hTfR antibodies obtained in Example 13 to human and monkey TfRs was measured by the method described in Example 7.

[3] = target: T2, recombinant human TfR (r human TfR: Sino Biological Inc.) (human, UniProt P02786 89-760); experiment: as above
T2 construct: Bought product; also called r human TfR-ECD (Histag); hTfR; not shown: histidine tag attached to the N-terminus
Procedure: as §1, §2, §3

[4] = target: T1, recombinant monkey TfR (r monkey TfR: …); experiment: BLI (Octet RED96), His-tagged TfR ECD loaded on Ni-NTA sensor, antibody as analyte
Procedure: (§4) By measuring the variations of this shift between the interfering waves, determination of the number of the molecules bound to the layer of the biomolecules immobilized to the sensor tip surface and kinetic analysis of it can be performed in real time. The measurement was performed according generally to the operating manual attached to Octet RED96. As a human TfR, a recombinant human TfR (r human TfR: Sino Biological Inc.) was used, which had the amino acid sequence of the hTfR extracellular region, i.e., the cysteine residue at the position 89th from the N-terminal side to the phenylalanine at the C-terminus, of the amino acid sequence set forth as SEQ ID NO:1, with a histidine tag attached to the N-terminus. As a monkey TfR, a recombinant monkey TfR (r monkey TfR: Sino Biological Inc.) was used, which had the amino acid sequence of the cynomolgus monkey TfR extracellular region, i.e., the cysteine residue at the position 89th from the N-terminal side to the phenylalanine at the C-terminus, of the amino acid sequence set forth as SEQ ID NO:2, with a histidine tag attached to the N-terminus.
as §1
(§5) Each of the sample solutions prepared above by 2-fold dilution steps was added, 200 μL/well, to a 96-well plate, black (Greiner Bio-One Inc.). Each of the r human TfR-ECD (Histag) solution and the r monkey TfR-ECD (Histag) solutions prepared above was added, 200 μL/well, to predetermined wells. To respective wells for baseline, dissociation and washing were added HBS-P+, 200 μL/well. To wells for regeneration were added 10 mM Glycine-HCl, pH 1.7, 200 μL/well. To wells for activation was added 0.5 mM NiCl₂ solution, 200 μL/well. The plate and biosensor (Biosensor/Ni-NTA: ForteBio Inc., a division of Pall Corporation) were set in the prescribed positions of Octet RED96.

[5] = target: T2, recombinant human TfR (r human TfR: …); experiment: as above
Procedure: as §4, §1, §5

human TrkB (GenBank Acc. No. NP_001018074.1) expressed in CHO cells, sequence (Q16620 32-822): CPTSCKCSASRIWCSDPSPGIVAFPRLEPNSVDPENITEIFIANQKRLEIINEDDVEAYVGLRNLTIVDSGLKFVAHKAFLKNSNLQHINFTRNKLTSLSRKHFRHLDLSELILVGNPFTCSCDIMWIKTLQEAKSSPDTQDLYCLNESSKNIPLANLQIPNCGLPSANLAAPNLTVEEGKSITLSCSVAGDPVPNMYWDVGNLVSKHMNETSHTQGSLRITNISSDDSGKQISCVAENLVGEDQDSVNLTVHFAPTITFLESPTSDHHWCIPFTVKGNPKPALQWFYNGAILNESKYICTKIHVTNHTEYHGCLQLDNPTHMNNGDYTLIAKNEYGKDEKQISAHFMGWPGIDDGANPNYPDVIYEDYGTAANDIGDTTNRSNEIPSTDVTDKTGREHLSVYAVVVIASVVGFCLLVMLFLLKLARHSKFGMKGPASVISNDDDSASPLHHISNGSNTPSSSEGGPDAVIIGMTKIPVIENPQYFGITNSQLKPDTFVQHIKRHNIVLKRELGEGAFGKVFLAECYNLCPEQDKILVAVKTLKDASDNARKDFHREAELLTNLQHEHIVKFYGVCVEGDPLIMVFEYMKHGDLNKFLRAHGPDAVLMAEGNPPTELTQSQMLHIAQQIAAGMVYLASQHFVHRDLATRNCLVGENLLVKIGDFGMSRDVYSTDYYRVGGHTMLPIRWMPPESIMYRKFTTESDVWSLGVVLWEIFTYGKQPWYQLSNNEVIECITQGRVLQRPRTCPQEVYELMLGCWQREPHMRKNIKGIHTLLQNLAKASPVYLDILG

BDNF activity (TrkB agonistic EC50, nmol/L) [1] [nmol/L] | Kd [2] [nM] | koff [2] [s⁻¹] | kon [2] [M⁻¹ s⁻¹] | Kd [3] [nM] | koff [3] [s⁻¹] | kon [3] [M⁻¹ s⁻¹] | Kd [4] [nM] | koff [4] [s⁻¹] | kon [4] [M⁻¹ s⁻¹] | Kd [5] [nM] | koff [5] [s⁻¹] | kon [5] [M⁻¹ s⁻¹] | Binder
 | 1.91 | 0.000932 | 488000 | 0.0209 | 1.25e-05 | 600000 |  |  |  |  |  |  | humanized anti-hTfR antibody No. 3-3 (antibody, human IgG1, kappa, IgG1) heavy: not shown light: DIVMTQTPLSLPVTPGEPASISCRSSQSLVHSNGNTYLHWYLQKPGQSPQLLIYKVSNRFSGVPDRFSGSGSGTDFTLKISRVEAEDVGVYYCSQSTHVPWTFGQGTRLEIKRTVAAPSVFIFPPSDEQLKSGTASVVCLLNNFYPREAKVQWKVDNALQSGNSQESVTEQDSKDSTYSLSSTLTLSKADYEKHKVYACEVTHQGLSSPVTKSFNRGEC
 | 0.26 | 0.000135 | 519000 | < 0.001 | < 1e-07 | 1.01e+06 |  |  |  |  |  |  | humanized anti-hTfR antibody No. 3-4 (antibody, human IgG1, kappa, V domains shown, IgG1) VH: EVQLVQSGAEVKKPGESLKISCKGSGYSFTNYWLGWVRQMPGKGLEWMGDIYPGGDYPTYSEKFKVQVTISADKSISTAYLQWSSLKASDTAMYYCARSGNYDEVAYWGQGTLVTVSS VL: DIVMTQTPLSLSVTPGQPASISCRSSQSLVHSNGNTYLHWYLQKPGQSPQLLIYKVSNRFSGVPDRFSGSGSGTDFTLKISRVEAEDVGVFFCSQSTHVPWTFGQGTKVEIKR

Second part, the binder before the results:

Binder | BDNF activity (TrkB agonistic EC50, nmol/L) [1] [nmol/L] | Kd [2] [nM] | koff [2] [s⁻¹] | kon [2] [M⁻¹ s⁻¹] | Kd [3] [nM] | koff [3] [s⁻¹] | kon [3] [M⁻¹ s⁻¹] | Kd [4] [nM] | koff [4] [s⁻¹] | kon [4] [M⁻¹ s⁻¹] | Kd [5] [nM] | koff [5] [s⁻¹] | kon [5] [M⁻¹ s⁻¹]
hBDNF-anti-hTfR antibody 5 (other) HSDPARRGELSVCDSISEWVTAADKKTAVDMSGGTVTVLEKVPVSKGQLKQYFYETKCNPMGYTKEGCRGIDKRHWNSQCRTTQSYVRALTMDSKKRIGWRFIRIDTSCVCTLTIKRGRGSGGGGSGGGGSGGGGSGGGGSGGGGSEVQLVQSGAEVKKPGESLKISCKGSGYSFTNYWLGWVRQMPGKGLEWMGDIYPGGDYPTYSEKFKVQVTISADKSISTAYLQWSSLKASDTAMYYCARSGNYDEVAYWGQGTLVTVSSGGGGSGGGGSGGGGSDIVMTQTPLSLSVTPGQPASISCRSSQSLVHSNGNTYLHWYLQKPGQSPQLLIYKVSNRFSGVPDRFSGSGSGTDFTLKISRVEAEDVGVYYCSQSTHVPWTFGQGTKVEIK | 0.092 |  |  |  |  |  |  |  |  |  |  |  | 
humanized anti-hTfR antibody No. 1 (antibody, human IgG1, kappa, V domains shown, IgG1; expressed in CHO-K1, purified on Protein A) VH: EVQLVESGGGLVQPGGSLRLSCAASGLTFSNYGMSWVRQAPGKGLELVANINTNGGSTYYPDSVKGRFTISRDNAKNSLYLQMNSLRAEDTAVYYCTNNRYDEDYWGQGTLVTVSS VL: DIQVTQSPSFLSASVGDRVTITCKASQDVNSAVAWFQQKPGKAPKLLIYWTSTRHTGVPDRFSGSGSGTVYTLTISSLQPEDFATYYCQQHYSTPRTFGGGTKVEIKR |  | < 0.001 | < 1e-07 | 253000 | < 0.001 | < 1e-07 | 393000 |  |  |  |  |  | 
humanized anti-hTfR antibody No. 2 (antibody, human IgG1, kappa, V domains shown, IgG1; expressed in CHO-K1, purified on Protein A) VH: QVQLVQSGAEVKKPGASVKVSCKASGYTFTDYVMHWVRQAPGQGLEWIGVISTYYGHGSYNQRFKGRATMTVDKSISTAYMELVRLRSDDTAVYYCVRGGYGSSSLAGNFDVWGQGTTVTVSS VL: EIVLTQSPDFQSVTPKEKVTITCRASQSISNNLQWYQQKPDQSPKLLIKYASQSISGIPSRFSGSGSGTDFTLTINSLEAEDAATYLCQQSNSWPRTFGQGTKVEIKR |  | 0.0755 | 3.67e-05 | 487000 | < 0.001 | < 1e-07 | 197000 |  |  |  |  |  | 
anti-hTfR antibody No. 3 (antibody, V domains shown, Mouse hybridoma antibody purified on Protein G; also called mouse anti-hTfR antibody No. 3; product of Clone 3 line) VH: EVQLQESGAELVRPGTSVKISCKASGYTFMNYWLGWVKQRPGHGLEWIGDIYPGGDYPTYSEKFKVKAILTADTSSSSVYLHLSSLTSEDSAVYFCARSGNYDEVAYWGQGTLVTVST VL: DIVMTQTTLSLPVSLGDQASISCRSSQSLVHSNGNTYLHWYLQKPGQSPKLLIYKVSNRFSGVPDRFSGSGSGTDFTLKISRVEAEDLGVFFCSQSTHVPWTFGGGTKLEIKR |  |  |  |  |  |  |  | < 0.001 | < 1e-07 | 389000 | < 0.001 | < 1e-07 | 653000
hBDNF-anti-hTfR antibody 7 (other) heavy: HSDPARRGELSVCDSISEWVTAADKKTAVDMSGGTVTVLEKVPVSKGQLKQYFYETKCNPMGYTKEGCRGIDKRHWNSQCRTTQSYVRALTMDSKKRIGWRFIRIDTSCVCTLTIKRGRGSGGGGSGGGGSGGGGSGGGGSGGGGSEVQLVQSGAEVKKPGESLKISCKGSGYSFTNYWLGWVRQMPGKGLEWMGDIYPGGDYPTYSEKFKVQVTISADKSISTAYLQWSSLKASDTAMYYCARSGNYDEVAYWGQGTLVTVSSASTKGPSVFPLAPSSKSTSGGTAALGCLVKDYFPEPVTVSWNSGALTSGVHTFPAVLQSSGLYSLSSVVTVPSSSLGTQTYICNVNHKPSNTKVDKKVEPKSCDKTHT light: DIVMTQTPLSLSVTPGQPASISCRSSQSLVHSNGNTYLHWYLQKPGQSPQLLIYKVSNRFSGVPDRFSGSGSGTDFTLKISRVEAEDVGVYYCSQSTHVPWTFGQGTKVEIKRTVAAPSVFIFPPSDEQLKSGTASVVCLLNNFYPREAKVQWKVDNALQSGNSQESVTEQDSKDSTYSLSSTLTLSKADYEKHKVYACEVTHQGLSSPVTKSFNRGEC | 0.23 |  |  |  |  |  |  |  |  |  |  |  | 
humanized anti-hTfR antibody No. 3-2 (antibody, human IgG1, kappa, IgG1) heavy: not shown light: DIVMTQSPLSLPVTPGEPASISCRSSQSLVHSNGNTYLHWYLQKPGQSPQLLIYKVSNRFSGVPDRFSGSGSGTDFTLKISRVEAEDVGVYYCSQSTHVPWTFGQGTKVEIKRTVAAPSVFIFPPSDEQLKSGTASVVCLLNNFYPREAKVQWKVDNALQSGNSQESVTEQDSKDSTYSLSSTLTLSKADYEKHKVYACEVTHQGLSSPVTKSFNRGEC |  | 1.77 | 0.000876 | 495000 | 0.0239 | 1.45e-05 | 606000 |  |  |  |  |  | 
